The results in this text go back to patent publication CN114349851A (SHANGHAI NAI BIOTECHNOLOGY CO LTD, dated 2022).

For test [1], the target named is T1, RBD-Fc (RBD与Fc的融合蛋白), 野生型RBD (SARS-CoV-2, UniProt P0DTC2 319-541). The test is described as follows: competitive ELISA, nanobody titrated against RBD binding to coated ACE2. On the technique in general: An ELISA detects its analyte on a solid surface through an enzyme-linked reagent.
Test [2] deals with T1, RBD-Fc (RBD与Fc的融合蛋白), 野生型RBD. The test is described as follows: BLI (Octet RED96), His-tagged nanobody on Ni-NTA sensor, RBD-Fc as analyte. In general terms: Biolayer interferometry detects binding as a change in optical thickness at a sensor tip.
For test [3] the target is unchanged. Kind of test: BLI, compared with C5.

B1: 纳米抗体C5D2 (VHH)
VHH: DVQLVESGGGSVQAGGSLRLSCAASGEYSQLRFLGWFRQAPGKEREGVAAGLGANEDGYYADSVKGRFTVSLDNAENTVYLQMNSLKPEDTALYYCAALVIFSHDGPEFLAQNYWGQGTQVTVSS
One may read the IC50 as the concentration that gives 50% inhibition. A word on the Kd: it is the equilibrium constant for the complex coming apart. The low end stands for a tighter complex, the high end for a looser complex. Regarding B1, the half-inhibitory concentration (IC50) in test [1] was 28 nM. The molecule further displayed a Kd in test [2] of less than 0.001 nM.

B2: 纳米抗体C5G2 (VHH)
VHH: DVQLVESGGGSVQAGGSLRLSCAASGKFSHLVFLGWFRQAPGKEREGVAAGLGAYESGYYADSVKGRFTVSLDNAENTVYLQMNSLKPEDTALYYCAALVVLSRDNTEFIAHNYWGQGTQVTVSS
Molecule B2 showed an IC50 in test [1] of 88 nM. Further, the “fold increase in affinity over C5” value in test [3] was determined as 11 fold. Also, binding in test [2] was put at a Kd of 1.62 nM.
